Patent publication US20080213252A1, “METHODS OF TREATING ITCH” (priority 2007, published 2008)

B1: recombinant mucunain: M. pruriens cysteine protease expressed in E. coli, refolded and activated (protein)
chain: DNLPESVDWRNESAVLPVKDQGNCGSCWAFSTIGAVEGINKIVTGDLISLSEQELVDCDTSYNQGCNGGLMDYAYEFIINNGGIDSEEDYPYRAVDGTCDQYRKNAKVVTIDSYEDVPANDELALKKAVANQPVSVAIEGGGREFQLYVSGVFTGRCGTALDHGVVAVGYGSVKGHDYWIVRNSWGASWGEEGYVRLERNLAKSRSGKCGIAIEPSYPIKNGANPPNPGPSPPSPVKPPNVCDNSYSCSDSATCCCIFEFQKYCMVWGCCPLEAATCCDDHYSCCPHEYPICNVRAGTCLKGKNNPFGVKALRRTPAKPHWAFGGKNKVNSA
B2: mucunain: cysteine protease, itch-inducing component of spicules from M. pruriens (cowhage) (protein)
chain: DNLPESVDWRNESAVLPVKDQGNCGSCWAFSTIGAVEGINKIVTGDLISLSEQELVDCDTSYNQGCNGGLMDYAYEFIINNGGIDSEEDYPYRAVDGTCDQYRKNAKVVTIDSYEDVPANDELALKKAVANQPVSVAIEGGGREFQLYVSGVFTGRCGTALDHGVVAVGYGSVKGHDYWIVRNSWGASWGEEGYVRLERNLAKSRSGKCGIAIEPSYPIKNGANPPNPGPSPPSPVKPPNVCDNSYSCSDSATCCCIFEFQKYCMVWGCCPLEAATCCDDHYSCCPHEYPICNVRAGTCLKGKNNPFGVKALRRTPAKPHWAFGGKNKVNSA
B3: papain: crystallized papain from Sigma, control cysteine protease (protein)
chain: IPEYVDWRQKGAVTPVKNQGSCGSCWAFSAVVTIEGIIKIRTGNLNEYSEQELLDCDRRSYGCNGGYPWSALQLVAQYGIHYRNTYPYEGVQRYCRSREKGPYAAKTDGVRQVQPYNEGALLYSIANQPVSVVLEAAGKDFQLYRGGIFVGPCGNKVDHAVAAVGYGPNYILIKNSWGTGWGENGYIRIKRGTGNSYGVCGLYTSSFYPVKN

Assays:
PAR4 = test: PAR activation by cytoplasmic calcium release, ratiometric Fura-2 imaging, PAR4 transfected HeLa cells; format: cell-based, human; details: Fura-2 340:380 ratiometric imaging
Method: PAR activation observed by cytoplasmic calcium release—The four human PAR cDNAs were obtained from commercial sources and cloned into the pcDNA3.1 (−) vector (Invitrogen). HeLa cells were transfected with 10 μg of vector cDNA using Lipofectamine 2000 (Invitrogen) and cultured for two days in 96-well glass bottom plates at 30,000 cells/well. Cells were loaded with Fura-2 as follows. The medium was aspirated and replaced with 100 μl of complete DMEM containing 2 μM Fura-2 (Invitrogen) and kept at room temperature in the dark for 1 hr. The medium was again aspirated and each well received 90 μl of HEPES buffered saline (20 mM HEPES, 115 mM NaCl, 5.4 mM KCl, 2 mM CaCl2, 0.8 mM MgCl2, 13.8 mM glucose, pH 7.4). Plates were observed using a Zeiss Axiovert 200M microscope equipped with a filter wheel for monitoring excitation at 340 and 380 nm. Axiovision software, version 4.6 was used to analyze ratiometric calcium imaging of the cells. Ten μl of protease was applied approximately 20 seconds after the start of excitation. Images were taken every 5 seconds, beginning at time zero, for 3 minutes. The software was used to analyze the 37 images taken during each 3-minute period.

skin of volunteers = test: Psychophysics: itch sensation after insertion of native or reconstituted cowhage spicules into skin; format: in vivo; details: human volunteers; autoclaved spicules soaked in the substance and dried
Method: Reconstitution of spicules—Native spicules were inactivated by autoclaving for 1 hour and reconstituted with native and recombinant mucunains in the presence or absence of cysteine protease inhibitor, E64. Typically, 50 mg of inactivated spicules were mixed with 0.4 ml of 28 μM mucunain in a 2 ml microfuge tube, vortexed, and dried in a Speed-vac for 2 hours at room temperature. These spicules were then considered as ‘reconstituted’ with the protease alone. Spicules prepared in a similar manner but with E64 added at twice the concentration of mucunain, are considered reconstituted with the protease and the inhibitor.
Psychophysics—These protocols were approved by the Yale University Human Investigation Committee. A row of 10 cowhage spicules were lightly pasted to the flattened end of a Weck-Cel surgical strip, spaced at 1 mm, and applied parallel to the surface of the skin at the mid-volar forearm. […] Every 30 sec, subjects rated the magnitude of each of three qualities of sensation: Itch, pricking/stinging, and burning using the Generalized Labeled Magnitude Scale (Bartoshuk et al. 2004) that employs appropriately placed intensity descriptors of “none”, “barely detectable”, “weak”, “moderate”, “strong”, “very strong” and, at the top of the scale, “the strongest sensation imaginable.” Voltages derived from each subject's movements of a computer mouse that controlled a cursor on a visual representation of this scale were converted to numbers between 0 and 100 and plotted for each quality at successive intervals of 30 s up to 20 min after the insertion of cowhage. […]
The sensory effects of mucunain was further analyzed. […] 50 mg of the inactivated, dried spicules were then soaked in 0.05 ml of the filtered extract containing 0.07 mg of cysteine protease (as determined by non-interfering protein assay) with or without 3.5 micrograms of E-64. […]

casein = details: 12.5% native casein-zymogram gel, 0.1 μg of each mucunain
Method: Zymogram—The zymogram of native and recombinant mucunain was carried out using a 12.5% native casein-zymogram gel as recommended by the supplier (Biorad). The zymogram gel was run with 0.1 μg of each of the mucunains, renatured and developed for protease activity overnight.

[1] = native mucunain 0.9 μM, recombinant mucunain 2.7 μM; room temperature 1 hr; absorbance at 405 nm
Method: Chromogenic substrate assay—Native and recombinant mucunain protease activity were measured in a buffer containing 50 mM sodium acetate (pH 5.5), 2.5 mM EDTA, 2.5 mM DTT, and 250 μg/ml Z-Phe-Arg-pNA as the chromogenic substrate. After adding protease, the reaction was incubated at room temperature for 1 hr. Generation of the yellow product, p-nitroaniline, was assayed by measuring the absorbance at 405 nm. Papain served as a control cysteine protease. E64, an irreversible inhibitor of cysteine proteases, was used at a concentration of 10 M. Experiments were performed in triplicate and the error bars represent standard deviation.

| Molecule | calcium influx in PAR4 transfected HeLa cells (PAR4) | itch evoked by substance loaded into inactivated spicules (skin of volunteers) | protease activity in zymogram (casein) | cleavage of chromogenic substrate Z-FR-pNA [1] |
| --- | --- | --- | --- | --- |
| B1 | induced calcium influx | did elicit itch | Protease activity was found | – |
| B2 | – | evoked itch and nociceptive sensations | – | cleaves |
| B3 | induced calcium influx | produced itch | – | – |
